Here are results for 15 sequences from a protein production outcome set (Wang et al. 2014).

The series can be described thus: label from the status in PepcDB records.

On to “LRGMLPGSKLCEKKIVLSPSANMAAELKSEGKLFMLKRLRLADLEPMAIETSLLPINRFPSLENRNFENESLYEILEEEYNIKMTKAQQKIEVRMPTPQESELLDINYTIPVFHFKQVTFDQNDTIFEVAHSVYRGDRYEIETEIYR”, for which the protein production result was “failed”.
Consider “LRKQVEELFERKYAQAIKAKGPVTIPYPLFQSHVEDLYVEGLPEGIPFRRPSTYGIPRLERILLAKERIRFVIKKHELLNSTREDL”, for which the protein production entry is recorded as “not failed”.
As for “LRRGHLKLQRDGQIIGHTPEEWEQIFREVWPEYEIEPNPLPGYAPFDIGMWLTVEAPAYAVWIDPEDGSEYWAG”, the protein production entry is “failed”.
With “LRSRRKPSSRIGRRPSTTQDRISTVGIELFTEQGFDATSVDEVAEASGIARRTLFRYFPSKNAIPWGDFDAHLAEMRAQLAAQPDDIPIVDGLTAALLQFNAFPASEEINHRKRMGLILRVPALQAYSVVMYEGWRNVIAEYVASRLGTSPTDHVPRTVGYLLLGVAMSAYEQWLDDDSLELNELLASGMQSLYDGLSSLGEPDTRT” the entry was “not failed”; with “LSPQVRTAHIGDVPVLVRLMSEFYQEAGFALPHDAAIRAFKALLGKPDLGRIWLIAEGTESVGYIVLTLGFSMEYGGLRGFVDDFFVRPNARGKGLGAAALQTVKQGCCDLGVRALLVETGPEDHPARGVYSRAGFEESGRMLLGQALAPPIHEA”, “not failed”.
To “LSQAEQDKLDAAVFRQLLQHLDQHKEVQNIDLMILADFCRNCLCKWYAAEAEKQGLDLNIDDARERVYGMTYDEWKANHQPPATPEQLAAFEAKTKSK” belongs “failed”.
“LSRVGSAEWNLLTDEATWSGELYQILGRDPAAPPLTLDELPSFVHDEDRPRLTAMVTDCLIDAKPIDGEFRIVRPDGGVRTVHMMGEPVLDAHGSTASMWAVLRDVSE”: the protein production result was “not failed”.
To “LTAIEARVIGCLIEKEVTTPDQYPLSLNALTNASNQKSNREPVMALSESDVLDAVDALIERRLVSDESAFNSRVSKYQHRFCNTEFGDLKLSEQEKGIICCMLLRGAQTPGEIRTRTNRLATFHDVKEVEAVLEHLASEEKGPLVVKLPREAGKRESRYMHLFCGEVDVSAMAAAVPAT” belongs “failed”; to “LTESEERWRLALDAANLGFWDWNVLTAKVVWSENHERLFGLVSGSFDGTYETFLSCVHPEDRESVIQVIGVCLENKTDYYDEFRIVWPDKSIHWIAAKGRFFYNDQGQPVRMIGVCMDITKSKRTEEN”, “failed”.
Take “LTSSNALRGDAHSRLAAHRGLLERTSRTTRVAGILRDAIIDGTFRPGARLSEPDICAALDVSRNTVREAFQILIEDRLVAHELNRGVFVRVPTAEDITELYICRRVVECAGVNGFDPATGDLSRVAEALDLADERYAVEDWTGVGTADIHFHSALASLNNSNRIDELMRSVWNEARLVFHVMDDAHRFHGPYLTRNHEIYDALAAGNTEAAGQLLKTYLEDAEAQILGAYRPVSG”: the protein production entry was “not failed”.
To “MAAADAEAVPARGEPQQDCCVKTELLGEETPMAADEGSAEKQAGEAHMAADGETNGSCENSDASSHANAAKHTQDSARVNPQDGTNTLTRIAENGVSERDSEAAKQNHVTADDFVQTSVIGSNGYILNKPALQAQPLRTTSTLASSLPGHAAKTLPGGAGKGRTPSAFPQTPAAPPATLGEGSADTEDRKLPAPGADVKVHRARKTMPKSVVGLHAASKDPREVREARDHKEPKEEINKNISDFGRQQLLPPFPSLHQSLPQNQCYMATTKSQTACLPFVLAAAVSRKKKRRMGTYSLVPKKKTKVLKQRTVIEMFKSITHSTVGSKGEKDLGASSLHVNGESLEMDSDEDDSEELEEDDGHGAEQAAAFPTEDSRTSKESMSEADRAQKMDGESEEEQESVDTGEEEEGGDESDLSSESSIKKKFLKRKGKTDSPWIKPARKRRRRSRKKPSGALGSESYKSSAGSAEQTAPGDSTGYMEVSLDSLDLRVKGILSSQAEGLANGPDVLETDGLQEVPLCSCRMETPKSREITTLANNQCMATESVDHELGRCTNSVVKYELMRPSNKAPLLVLCEDHRGRMVKHQCCPGCGYFCTAGNFMECQPESSISHRFHKDCASRVNNASYCPHCGEESSKAKEVTIAKADTTSTVTPVPGQEKGSALEGRADTTTGSAAGPPLSEDDKLQGAASHVPEGFDPTGPAGLGRPTPGLSQGPGKETLESALIALDSEKPKKLRFHPKQLYFSARQGELQKVLLMLVDGIDPNFKMEHQNKRSPLHAAAEAGHVDICHMLVQAGANIDTCSEDQRTPLMEAAENNHLEAVKYLIKAGALVDPKDAEGSTCLHLAAKKGHYEVVQYLLSNGQMDVNCQDDGGWTPMIWATEYKHVDLVKLLLSKGSDINIRDNEENICLHWAAFSGCVDIAEILLAAKCDLHAVNIHGDSPLHIAARENRYDCVVLFLSRDSDVTLKNKEGETPLQCASLNSQVWSALQMSKALQDSAPDRPSPVERIVSRDIARGYERIPIPCVNAVDSEPCPSNYKYVSQNCVTSPMNIDRNITHLQYCVCIDDCSSSNCMCGQLSMRCWYDKDGRLLPEFNMAEPPLIFECNHACSCWRNCRNRVVQNGLRARLQLYRTRDMGWGVRSLQDIPPGTFVCEYVGELISDSEADVREEDSYLFDLDNKDGEVYCIDARFYGNVSRFINHHCEPNLVPVRVFMAHQDLRFPRIAFFSTRLIEAGEQLGFDYGERFWDIKGKLFSCRCGSPKCRHSSAALAQRQASAAQEAQEDGLPDTSSAAAADPL” belongs “failed”; to “MAAAFASLPTFSVVNSSRFPRRRIGFSCSKKPLEVRCSSGNTRYTKQRGAFTSLKECAISLALSVGLMVSVPSIALPPNAHAVANPVIPDVSVLISGPPIKDPEALLRYALPIDNKAIREVQKPLEDITDSLKIAGVKALDSVERNVRQASRTLQQGKSIIVAGFAESKKDHGNEMIEKLEAGMQDMLKIVEDRKRDAVAPKQKEILKYVGGIEEDMVDGFPYEVPEEYRNMPLLKGRASVDMKVKIKDNPNIEDCVFRIVLDGYNAPVTAGNFVDLVERHFYDGMEIQRSDGFVVQTGDPEGPAEGFIDPSTEKTRTVPLEIMVTGEKTPFYGSTLEELGLYKAQVVIPFNAFGTMAMAREEFENDSGSSQVFWLLKESELTPSNSNILDGRYAVFGYVTDNEDFLADLKVGDVIESIQVVSGLENLANPSYKIAG”, “failed”; to “MAAARDQLQMAADVARLGIWRWNLADDSLQWNERMCEMYGQPLALRDGGLVYEHWRSRLHPEDLERTEASLRAAVEGRGNYDVIFRVVLPDGGIRFIQAGAQVERDADGNPLQVTGINIDITSDQQLQARLREAKEQADAASAAKSSFLANMSHEIRTPMNAVLGML”, “failed”.
As to “MAADESYPSVKERAFFQGLPFDYAVVFDNALIDRLFSRLRQERALVEDGLLARPDHRPWRLGALITEADTLDRRLSEQIRCLSGQSLPVASIALVTATTEAREAVSLWASVTCPPNVVVTPDPRAWMAEADLDLVVVFAPGALAHPGLFAALGRALQRDGADFAVWNHLLVRRRAEAPGQDITYLRCPDPTRQPVALAHMEAAGPAWAATPRLFETIKGDLGKALIGMARHPLSIALLRGKPKVVRLNEFLGACRVDSLGTPPWPRQSALVEAYGAALEDETFRLEIDPAHPTQPIRLTPRRRAHSIDIVINFRDKPELTLAAMGSIYAQTTTARVSLFLIDNQSTPAARAAIDAEAARAPAGIAVRVLSYDRPFNHSAQTNLGAAAGNGEALVFMSNDCALVDPGALDEMAAWALAPGVGTVGVRLETAEGRLACSGICALYPDHDFHPIVAEGFDQLGAGLNRETFANTFACACLARAVFRQAGPLDAIGFPIGLNDVDYCLRLRERGLRHLYLGAFLARHQALGSRPASDDGAQSAFLRQTYGHLLFDKEYMLEYDFLRQFTAAKLRQDIRSQRDKTTTVLEHHHHHH”, the protein production result was “failed”.
Take “MAAEIHSRPQSSRPVLLSKIEGHQDAVTAALLIPKEDGVITASQDNGAVMEFHVSEDFNKMNFIKTYPAHQNRVSAIIFSLATEWVISTGHDKCVSWMCTRSGNMLGRHFFTSWASCLQYDFDTQYAFVGDYSGQITLLKLEQNTCSVITTLKGHEGSVACLWWDPIQRLLFSGASDNSIIMWDIGGRKGRTLLLQGHHDKVQSLCYLQLTRQLVSCSSDGGIAVWNMDVSREEAPQWLESDSCQKCEQPFFWNIKQMWDTKTLGLRQHHCRKCGQAVCGKCSSKRSSYPVMGFEFQVRVCDSCYDSIKDEDRTSLATFHEGKHNISHMSMDIARGLMVTCGTDRIVKIWDMTPVVGCSLATGFSPH”: the protein production entry is “failed”.
